# Like-named read-outs stand apart in the source and are kept apart here.
# T1: DNA polymerase IV (Dpo4) (Sulfolobus solfataricus, UniProt Q97W02 1-352)
# T1 sequence: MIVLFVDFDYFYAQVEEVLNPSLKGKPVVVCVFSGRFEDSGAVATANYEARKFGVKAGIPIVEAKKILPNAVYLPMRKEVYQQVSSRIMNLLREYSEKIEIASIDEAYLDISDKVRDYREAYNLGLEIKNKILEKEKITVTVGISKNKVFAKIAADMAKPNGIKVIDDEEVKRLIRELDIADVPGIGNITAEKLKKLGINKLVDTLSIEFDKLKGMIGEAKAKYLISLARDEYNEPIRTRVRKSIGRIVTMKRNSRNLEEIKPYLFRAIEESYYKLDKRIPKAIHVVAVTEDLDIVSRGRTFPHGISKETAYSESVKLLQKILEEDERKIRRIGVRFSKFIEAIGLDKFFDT
# B1: 21/26-mer-dG1,8 (dsDNA)
# DNA 1: AACGACGGCCAGTGAATTCGC
# DNA 2: CCCGCGCGAATTCACTGGCCGTCGTT
# modifications: template G6 (from 5') is dG1,8 = 8-(deoxyguanosin-N2-yl)-1-aminopyrene; lesion paired with primer 3' end
# B2: 20/26-mer-dG1,8 (dsDNA)
# DNA 1: AACGACGGCCAGTGAATTCG
# DNA 2: CCCGCGCGAATTCACTGGCCGTCGTT
# modifications: template G6 (from 5') is dG1,8 = 8-(deoxyguanosin-N2-yl)-1-aminopyrene; lesion is the templating base
# Key:
# [1] = molecular target: T1, DNA polymerase IV (Dpo4); experiment: EMSA
# [2] = molecular target: T1, DNA polymerase IV (Dpo4); experiment: EMSA; remark: listed apart in the source
Binder,Kd [1],Kd [2]
B1,27 ± 3 nM,–
B2,–,9 ± 2 nM
